± gives the uncertainty stated by the source.
B1: Intersectin-1, residues 1156 to 1213; numbered along this chain, Q15811 (parent)
chain: AVCQVIGMYDYTAQNDDELAFNKGQIINVLNKEDPDWWKGEVNGQVGLFPSNYVKLTT

Variants of: B1
Assay: abundance fitness (aPCA) (normalised: wild type 0, dead -1); higher = more abundant; growth selection in yeast, the domain comes from the species named
Conditions: Homo sapiens

Question: Which abundance fitness does the source give for AVCQVIGMYDYTAQNDDELAFNKGQIINVLNKEDPDWAKGEVNGQVGLFPSNYVKLTT [W38A] here?
Answer: -0.533 ± 0.12

Question: Which abundance fitness does the source give for AVCQVIGMYDYTAQNDDELAFNKGQIINVLNKEDPDWVKGEVNGQVGLFPSNYVKLTT [W38V] here?
Answer: -0.906 ± 0.14

Question: For AVCQVIGMYDYTAQNDDELAFNKGQIINVLNKEDPDWIKGEVNGQVGLFPSNYVKLTT [W38I], which abundance fitness is on record?
Answer: -1.03 ± 0.33

Question: Which abundance fitness does the source give for AVCQVIGMYDYTAQNDDELAFNKGQIINVLNKEDPDWYKGEVNGQVGLFPSNYVKLTT [W38Y] here?
Answer: -0.791 ± 0.2

Question: Which abundance fitness does the source give for AVCQVIGMYDYTAQNDDELAFNKGQIINVLNKEDPDWHKGEVNGQVGLFPSNYVKLTT [W38H] here?
Answer: -0.793 ± 0.21

Question: For AVCQVIGMYDYTAQNDDELAFNKGQIINVLNKEDPDWTKGEVNGQVGLFPSNYVKLTT [W38T], which abundance fitness is on record?
Answer: -0.892 ± 0.17

Question: For AVCQVIGMYDYTAQNDDELAFNKGQIINVLNKEDPDWRKGEVNGQVGLFPSNYVKLTT [W38R], which abundance fitness is on record?
Answer: -1.08 ± 0.19

Question: For AVCQVIGMYDYTAQNDDELAFNKGQIINVLNKEDPDWDKGEVNGQVGLFPSNYVKLTT [W38D], which abundance fitness is on record?
Answer: -0.674 ± 0.2

Question: With AVCQVIGMYDYTAQNDDELAFNKGQIINVLNKEDPDWPKGEVNGQVGLFPSNYVKLTT [W38P] as the variant, how does the abundance fitness read?
Answer: -0.853 ± 0.22

Question: Which abundance fitness does the source give for AVCQVIGMYDYTAQNDDELAFNKGQIINVLNKEDPDWLKGEVNGQVGLFPSNYVKLTT [W38L] here?
Answer: -0.737 ± 0.12

Question: With AVCQVIGMYDYTAQNDDELAFNKGQIINVLNKEDPDWCKGEVNGQVGLFPSNYVKLTT [W38C] as the variant, how does the abundance fitness read?
Answer: -0.793 ± 0.22

Question: With AVCQVIGMYDYTAQNDDELAFNKGQIINVLNKEDPDWGKGEVNGQVGLFPSNYVKLTT [W38G] as the variant, how does the abundance fitness read?
Answer: -0.822 ± 0.11

Question: For AVCQVIGMYDYTAQNDDELAFNKGQIINVLNKEDPDWQKGEVNGQVGLFPSNYVKLTT [W38Q], which abundance fitness is on record?
Answer: -0.715 ± 0.21

Question: For AVCQVIGMYDYTAQNDDELAFNKGQIINVLNKEDPDWKKGEVNGQVGLFPSNYVKLTT [W38K], which abundance fitness is on record?
Answer: -0.671 ± 0.23

Question: Which abundance fitness does the source give for AVCQVIGMYDYTAQNDDELAFNKGQIINVLNKEDPDWNKGEVNGQVGLFPSNYVKLTT [W38N] here?
Answer: -0.644 ± 0.2

Question: For AVCQVIGMYDYTAQNDDELAFNKGQIINVLNKEDPDWFKGEVNGQVGLFPSNYVKLTT [W38F], which abundance fitness is on record?
Answer: -0.859 ± 0.2

Question: For AVCQVIGMYDYTAQNDDELAFNKGQIINVLNKEDPDWEKGEVNGQVGLFPSNYVKLTT [W38E], which abundance fitness is on record?
Answer: -0.779 ± 0.23

Question: For AVCQVIGMYDYTAQNDDELAFNKGQIINVLNKEDPDWSKGEVNGQVGLFPSNYVKLTT [W38S], which abundance fitness is on record?
Answer: -0.763 ± 0.12

Question: With AVCQVIGMYDYTAQNDDELAFNKGQIINVLNKEDPDWMKGEVNGQVGLFPSNYVKLTT [W38M] as the variant, how does the abundance fitness read?
Answer: -0.733 ± 0.24

Question: With AVCQVIGMYDYTAQNDDELAFNKGQIINVLNKEDPDQWKGEVNGQVGLFPSNYVKLTT [W37Q] as the variant, how does the abundance fitness read?
Answer: -0.223 ± 0.13

Question: For AVCQVIGMYDYTAQNDDELAFNKGQIINVLNKEDPDYWKGEVNGQVGLFPSNYVKLTT [W37Y], which abundance fitness is on record?
Answer: -0.058 ± 0.13

Question: For AVCQVIGMYDYTAQNDDELAFNKGQIINVLNKEDPDTWKGEVNGQVGLFPSNYVKLTT [W37T], which abundance fitness is on record?
Answer: -0.276 ± 0.13

Question: Which abundance fitness does the source give for AVCQVIGMYDYTAQNDDELAFNKGQIINVLNKEDPDHWKGEVNGQVGLFPSNYVKLTT [W37H] here?
Answer: -0.887 ± 0.19

Question: Which abundance fitness does the source give for AVCQVIGMYDYTAQNDDELAFNKGQIINVLNKEDPDFWKGEVNGQVGLFPSNYVKLTT [W37F] here?
Answer: -0.307 ± 0.18

Question: For AVCQVIGMYDYTAQNDDELAFNKGQIINVLNKEDPDPWKGEVNGQVGLFPSNYVKLTT [W37P], which abundance fitness is on record?
Answer: -0.947 ± 0.19

Question: For AVCQVIGMYDYTAQNDDELAFNKGQIINVLNKEDPDKWKGEVNGQVGLFPSNYVKLTT [W37K], which abundance fitness is on record?
Answer: -0.792 ± 0.2

Question: Which abundance fitness does the source give for AVCQVIGMYDYTAQNDDELAFNKGQIINVLNKEDPDMWKGEVNGQVGLFPSNYVKLTT [W37M] here?
Answer: 0.004 ± 0.12

Question: With AVCQVIGMYDYTAQNDDELAFNKGQIINVLNKEDPDDWKGEVNGQVGLFPSNYVKLTT [W37D] as the variant, how does the abundance fitness read?
Answer: -0.637 ± 0.17

Question: With AVCQVIGMYDYTAQNDDELAFNKGQIINVLNKEDPDIWKGEVNGQVGLFPSNYVKLTT [W37I] as the variant, how does the abundance fitness read?
Answer: -0.022 ± 0.15

Question: With AVCQVIGMYDYTAQNDDELAFNKGQIINVLNKEDPDLWKGEVNGQVGLFPSNYVKLTT [W37L] as the variant, how does the abundance fitness read?
Answer: -0.339 ± 0.085

Question: For AVCQVIGMYDYTAQNDDELAFNKGQIINVLNKEDPDGWKGEVNGQVGLFPSNYVKLTT [W37G], which abundance fitness is on record?
Answer: -0.72 ± 0.099

Question: With AVCQVIGMYDYTAQNDDELAFNKGQIINVLNKEDPDSWKGEVNGQVGLFPSNYVKLTT [W37S] as the variant, how does the abundance fitness read?
Answer: -0.778 ± 0.12

Question: Which abundance fitness does the source give for AVCQVIGMYDYTAQNDDELAFNKGQIINVLNKEDPDCWKGEVNGQVGLFPSNYVKLTT [W37C] here?
Answer: -0.588 ± 0.18

Question: With AVCQVIGMYDYTAQNDDELAFNKGQIINVLNKEDPDRWKGEVNGQVGLFPSNYVKLTT [W37R] as the variant, how does the abundance fitness read?
Answer: -0.49 ± 0.084

Question: For AVCQVIGMYDYTAQNDDELAFNKGQIINVLNKEDPDAWKGEVNGQVGLFPSNYVKLTT [W37A], which abundance fitness is on record?
Answer: -0.585 ± 0.11

Question: With AVCQVIGMYDYTAQNDDELAFNKGQIINVLNKEDPDEWKGEVNGQVGLFPSNYVKLTT [W37E] as the variant, how does the abundance fitness read?
Answer: -0.737 ± 0.15

Question: With AVCQVIGMYDYTAQNDDELAFNKGQIINVLNKEWPDWWKGEVNGQVGLFPSNYVKLTT [D34W] as the variant, how does the abundance fitness read?
Answer: -0.894 ± 0.19

Question: For AVCQVIGMYDYTAQNDDELAFNKGQIINVLNKETPDWWKGEVNGQVGLFPSNYVKLTT [D34T], which abundance fitness is on record?
Answer: -0.383 ± 0.17

Question: With AVCQVIGMYDYTAQNDDELAFNKGQIINVLNKESPDWWKGEVNGQVGLFPSNYVKLTT [D34S] as the variant, how does the abundance fitness read?
Answer: -0.221 ± 0.098

Question: For AVCQVIGMYDYTAQNDDELAFNKGQIINVLNKERPDWWKGEVNGQVGLFPSNYVKLTT [D34R], which abundance fitness is on record?
Answer: -0.116 ± 0.1

Question: Which abundance fitness does the source give for AVCQVIGMYDYTAQNDDELAFNKGQIINVLNKEVPDWWKGEVNGQVGLFPSNYVKLTT [D34V] here?
Answer: -0.691 ± 0.12

Question: With AVCQVIGMYDYTAQNDDELAFNKGQIINVLNKEFPDWWKGEVNGQVGLFPSNYVKLTT [D34F] as the variant, how does the abundance fitness read?
Answer: -0.554 ± 0.19

Question: For AVCQVIGMYDYTAQNDDELAFNKGQIINVLNKEKPDWWKGEVNGQVGLFPSNYVKLTT [D34K], which abundance fitness is on record?
Answer: -0.176 ± 0.2

Question: With AVCQVIGMYDYTAQNDDELAFNKGQIINVLNKELPDWWKGEVNGQVGLFPSNYVKLTT [D34L] as the variant, how does the abundance fitness read?
Answer: -0.673 ± 0.14

Question: Which abundance fitness does the source give for AVCQVIGMYDYTAQNDDELAFNKGQIINVLNKEIPDWWKGEVNGQVGLFPSNYVKLTT [D34I] here?
Answer: -0.974 ± 0.25

— the Human Domainome abundance scans (Beltran et al. 2025)
